As a reminder, the stoichiometry N is a count of units in the complex or per binding partner. One may read the kon as a measure of how fast the partners come together. A low value points to slow association.

Here are results for two substances from PMC9961482.

For experiment [1], the target named is Encapsulin–SpyTag (Myxococcus xanthus | Streptococcus pyogenes) (UniProt Q1D6H4). The experiment can be described thus: SEC-MALS. On the technique in general: In gel filtration, larger molecules generally elute earlier.
The target in experiment [2] is human ACE2-hFc fusion protein (human) (UniProt Q9BYF1). Kind of experiment: SPR. (SPR reads the build-up and loss of mass on a sensor chip optically.)

Take “Encapsulin–SpyTag (from UniProt Q1D6H4 1-287)”: the stoichiometry N in experiment [1] is 180.
In experiment [2], “Encapsulin–mRBD nanoparticle (from UniProt Q1D6H4;P0DTC2) (complex)” had a kon of 2.58e+06 M⁻¹ s⁻¹, a per cent reduction of binding after four weeks at 37 °C of 36 per cent and a per cent reduction of binding after two weeks at 37 °C of 1 per cent.
